Experimental data as given in the array DNA melting data of Ke et al..

Assay: melting temperature; melt of duplexes
Details: sodium 0.0675 M; strand 1 µM

Row | Substance | Tm [°C]
1 | CGACGTGCGTTATGTGCTG+CAGCACATACAGCACGTCG ((((((((..(((((((((+)))))))))..)))))))) | 53.3
2 | CGACGTGCGCAATGTGCTG+CAGCACATGGTGCACGTCG ((((((((.(.((((((((+)))))))).).)))))))) | 54.3
3 | CGACGTGCGACATGTGCTG+CAGCACATGGTGCACGTCG ((((((((..(((((((((+)))))))))..)))))))) | 57.3
4 | CGACGTGCTTTATGTGCTG+CAGCACATGACGCACGTCG ((((((((.(.((((((((+)))))))).).)))))))) | 47.1
5 | CGACGTGCTGGATGTGCTG+CAGCACATTCCGCACGTCG ((((((((.(.((((((((+)))))))).).)))))))) | 53.9
6 | CGACGTGCGCCATGTGCTG+CAGCACATCAGGCACGTCG ((((((((...((((((((+))))))))...)))))))) | 47.8
7 | CGACGTGCCCGATGTGCTG+CAGCACATCTAGCACGTCG ((((((((..(((((((((+)))))))))..)))))))) | 52.9
8 | CGACGTGCCCAATGTGCTG+CAGCACATCCCGCACGTCG ((((((((...((((((((+))))))))...)))))))) | 47.9
9 | CGACGTGCCACATGTGCTG+CAGCACATAGTGCACGTCG ((((((((...((((((((+))))))))...)))))))) | 46.9
10 | CGACGTGCACAATGTGCTG+CAGCACATTGAGCACGTCG ((((((((.((((((((((+)))))))))).)))))))) | 56.9
11 | CGACGTGCCAAATGTGCTG+CAGCACATGAAGCACGTCG ((((((((...((((((((+))))))))...)))))))) | 51.2
12 | CGACGTGCACTATGTGCTG+CAGCACATAATGCACGTCG (((((((((.(((((((((+))))))))).))))))))) | 51.2
13 | CGACGTGCTACATGTGCTG+CAGCACATCCTGCACGTCG ((((((((...((((((((+))))))))...)))))))) | 48.3
14 | CGACGTGCATTATGTGCTG+CAGCACATAGGGCACGTCG ((((((((..(((((((((+)))))))))..)))))))) | 52
15 | CGACGTGCCTTATGTGCTG+CAGCACATCCTGCACGTCG ((((((((...((((((((+))))))))...)))))))) | 47.2
16 | CGACGTGCGAGATGTGCTG+CAGCACATGGTGCACGTCG ((((((((...((((((((+))))))))...)))))))) | 48.5
17 | CGACGTGCTACATGTGCTG+CAGCACATCGGGCACGTCG ((((((((...((((((((+))))))))...)))))))) | 49.5
18 | CGACGTGCGTTATGTGCTG+CAGCACATTCGGCACGTCG ((((((((...((((((((+))))))))...)))))))) | 49.8
19 | CGACGTGCCCCATGTGCTG+CAGCACATGGCGCACGTCG ((((((((.((((((((((+)))))))))).)))))))) | 57.3
20 | CGACGTGCGATATGTGCTG+CAGCACATGCGGCACGTCG ((((((((...((((((((+))))))))...)))))))) | 50
21 | CGACGTGCCCCATGTGCTG+CAGCACATAATGCACGTCG ((((((((...((((((((+))))))))...)))))))) | 45.8
22 | CGACGTGCAGCATGTGCTG+CAGCACATCGCGCACGTCG ((((((((...((((((((+))))))))...)))))))) | 51.6
23 | CGACGTGCTCTATGTGCTG+CAGCACATGGAGCACGTCG ((((((((((.((((((((+)))))))).)))))))))) | 59.7
24 | CGACGTGCCGGATGTGCTG+CAGCACATTACGCACGTCG ((((((((...((((((((+))))))))...)))))))) | 50.1

Row | Substance | Tm [°C]
25 | CGACGTGCCCGATGTGCTG+CAGCACATATGGCACGTCG (((((((((..((((((((+))))))))..))))))))) | 54
26 | CGACGTGCCGTATGTGCTG+CAGCACATCTTGCACGTCG ((((((((...((((((((+))))))))...)))))))) | 48.5
27 | CGACGTGCTTGATGTGCTG+CAGCACATACGGCACGTCG ((((((((...((((((((+))))))))...)))))))) | 49.2
28 | CGACGTGCGTTATGTGCTG+CAGCACATTCTGCACGTCG ((((((((...((((((((+))))))))...)))))))) | 50
29 | CGACGTGCGCGATGTGCTG+CAGCACATTCCGCACGTCG (((((((((..((((((((+))))))))..))))))))) | 54.9
30 | CGACGTGCGCGATGTGCTG+CAGCACATGTTGCACGTCG ((((((((...((((((((+))))))))...)))))))) | 50.5
31 | CGACGTGCGACATGTGCTG+CAGCACATGGAGCACGTCG ((((((((..(((((((((+)))))))))..)))))))) | 63.5
32 | CGACGTGCCAAATGTGCTG+CAGCACATTGAGCACGTCG ((((((((..(((((((((+)))))))))..)))))))) | 53.9
33 | CGACGTGCAACATGTGCTG+CAGCACATGGGGCACGTCG ((((((((..(((((((((+)))))))))..)))))))) | 58.9
34 | CGACGTGCCGCATGTGCTG+CAGCACATTCAGCACGTCG ((((((((.(.((((((((+)))))))).).)))))))) | 48.9
35 | CGACGTGCGATATGTGCTG+CAGCACATATCGCACGTCG (((((((((((((((((((+))))))))))))))))))) | 64.1
36 | CGACGTGCCCAATGTGCTG+CAGCACATGCTGCACGTCG ((((((((...((((((((+))))))))...)))))))) | 47.8
37 | CGACGTGCATTATGTGCTG+CAGCACATTCCGCACGTCG ((((((((...((((((((+))))))))...)))))))) | 47.5
38 | CGACGTGCTGGATGTGCTG+CAGCACATGTCGCACGTCG ((((((((...((((((((+))))))))...)))))))) | 50.3
39 | CGACGTGCGCAATGTGCTG+CAGCACATTCTGCACGTCG ((((((((..(((((((((+)))))))))..)))))))) | 52.3
40 | CGACGTGCCTAATGTGCTG+CAGCACATTTGGCACGTCG (((((((((.(((((((((+))))))))).))))))))) | 58.7
41 | CGACGTGCTTTATGTGCTG+CAGCACATATCGCACGTCG ((((((((..(((((((((+)))))))))..)))))))) | 49.1
42 | CGACGTGCATCATGTGCTG+CAGCACATTGGGCACGTCG ((((((((...((((((((+))))))))...)))))))) | 50
43 | CGACGTGCATAATGTGCTG+CAGCACATAAGGCACGTCG ((((((((.(.((((((((+)))))))).).)))))))) | 51.3
44 | CGACGTGCCGCATGTGCTG+CAGCACATAGAGCACGTCG ((((((((...((((((((+))))))))...)))))))) | 50.7
45 | CGACGTGCATAATGTGCTG+CAGCACATCACGCACGTCG ((((((((.(.((((((((+)))))))).).)))))))) | 47.6
46 | CGACGTGCTTAATGTGCTG+CAGCACATCTGGCACGTCG ((((((((...((((((((+))))))))...)))))))) | 49.7
47 | CGACGTGCTTGATGTGCTG+CAGCACATTTGGCACGTCG ((((((((...((((((((+))))))))...)))))))) | 50.8
48 | CGACGTGCCGAATGTGCTG+CAGCACATGCGGCACGTCG ((((((((((.((((((((+)))))))).)))))))))) | 61.6

Row | Substance | Tm [°C]
49 | CGACGTGCATAATGTGCTG+CAGCACATGGTGCACGTCG (((((((((..((((((((+))))))))..))))))))) | 52.6
50 | CGACGTGCTCTATGTGCTG+CAGCACATATTGCACGTCG ((((((((..(((((((((+)))))))))..)))))))) | 50.9
51 | CGACGTGCTTCATGTGCTG+CAGCACATCGTGCACGTCG ((((((((...((((((((+))))))))...)))))))) | 43.2
52 | CGACGTGCATTATGTGCTG+CAGCACATGTTGCACGTCG (((((((((..((((((((+))))))))..))))))))) | 52.2
53 | CGACGTGCGGAATGTGCTG+CAGCACATCAAGCACGTCG ((((((((...((((((((+))))))))...)))))))) | 53.8
54 | CGACGTGCCATATGTGCTG+CAGCACATACCGCACGTCG ((((((((..(((((((((+)))))))))..)))))))) | 48.3
55 | CGACGTGCCGTATGTGCTG+CAGCACATTCGGCACGTCG ((((((((((.((((((((+)))))))).)))))))))) | 59.9
56 | CGACGTGCATCATGTGCTG+CAGCACATGAGGCACGTCG ((((((((.((((((((((+)))))))))).)))))))) | 60.8
57 | CGACGTGCCGTATGTGCTG+CAGCACATAGTGCACGTCG ((((((((..(((((((((+)))))))))..)))))))) | 49.5
58 | CGACGTGCCACATGTGCTG+CAGCACATCCCGCACGTCG ((((((((...((((((((+))))))))...)))))))) | 46.3
59 | CGACGTGCGGTATGTGCTG+CAGCACATGATGCACGTCG ((((((((...((((((((+))))))))...)))))))) | 52.2
60 | CGACGTGCCGTATGTGCTG+CAGCACATAGAGCACGTCG ((((((((..(((((((((+)))))))))..)))))))) | 53.1
61 | CGACGTGCATGATGTGCTG+CAGCACATCAAGCACGTCG ((((((((.((((((((((+)))))))))).)))))))) | 56.5
62 | CGACGTGCACAATGTGCTG+CAGCACATCCTGCACGTCG (((((((((..((((((((+))))))))..))))))))) | 47.1
63 | CGACGTGCAATATGTGCTG+CAGCACATTATGCACGTCG (((((((((..((((((((+))))))))..))))))))) | 52.1
64 | CGACGTGCCGTATGTGCTG+CAGCACATGTGGCACGTCG (((((((((..((((((((+))))))))..))))))))) | 55.7
65 | CGACGTGCCTTATGTGCTG+CAGCACATTGTGCACGTCG ((((((((...((((((((+))))))))...)))))))) | 45.7
66 | CGACGTGCGCAATGTGCTG+CAGCACATCCCGCACGTCG (((((((((..((((((((+))))))))..))))))))) | 52.5
67 | CGACGTGCCCCATGTGCTG+CAGCACATCGGGCACGTCG ((((((((((.((((((((+)))))))).)))))))))) | 57.2
68 | CGACGTGCTTTATGTGCTG+CAGCACATCCAGCACGTCG (((((((((..((((((((+))))))))..))))))))) | 49.4
69 | CGACGTGCGAAATGTGCTG+CAGCACATTTCGCACGTCG (((((((((((((((((((+))))))))))))))))))) | 64.7
70 | CGACGTGCGTCATGTGCTG+CAGCACATCGCGCACGTCG (((((((((..((((((((+))))))))..))))))))) | 54.2
71 | CGACGTGCTTTATGTGCTG+CAGCACATACTGCACGTCG ((((((((..(((((((((+)))))))))..)))))))) | 50.3
72 | CGACGTGCTTCATGTGCTG+CAGCACATGTGGCACGTCG ((((((((..(((((((((+)))))))))..)))))))) | 54.8
